From paper PMC12578283 (Protein & Cell, 2025) come the findings set out here.

Where “and” joins values, the source holds several entries; their conditions need not be identical. Equal entries are not always repeated.

For assay [1], the target named is p15 protein of African swine fever virus (African swine fever virus) (UniProt Q65179). The experiment in a line: cryo-EM structure.
Assay [2] addresses p15 protein of African swine fever virus (African swine fever virus, UniProt Q65179). The experiment in a line: SPR. Particulars: both partners purified.
For assay [3], the target named is T1, p15 protein of African swine fever virus (African swine fever virus, UniProt Q65179 1-158).
T1 chain: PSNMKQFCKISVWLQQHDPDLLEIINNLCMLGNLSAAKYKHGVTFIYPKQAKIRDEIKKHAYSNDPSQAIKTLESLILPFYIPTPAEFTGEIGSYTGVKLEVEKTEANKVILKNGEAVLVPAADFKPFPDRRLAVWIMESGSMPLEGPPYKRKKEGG
The experiment in a line: SPR.

As usually defined, the stoichiometry N is a count of units in the complex or per binding partner. Consider “p15 protein of African swine fever virus (from UniProt Q65179 1-158) (natural protein)”, for which the stoichiometry N in assay [1] was 3 and 6.

B1: monoclonal antibody 4E2 (antibody, V domains shown)
VH: QVQLHQPGSVLVRPGASVKLSCKASGYTFTSSWMHWAKQRPGQGLEWIGEIHPKSGNTNYNENFKGKATLTVDTSSSTAYVDLSSLASEDSAVYYCARSGGTYYYAMDSWGQGTSVTVSS
VL: DIQMTQTTSSLSASLGDRVTISCRASQDTSNYLNWYQQKPDGTVKLLIYYTSRLHSGVPSRFSGSGSGTDFSLTINTLEQEDFATYFCQQGNTSPYTFGGGTKLEIK
A word on the Kd: it is the free concentration of one partner at which half of the binding sites on the other are occupied at equilibrium, for simple one-to-one binding. The koff is the rate constant with which the complex falls apart. Read a low koff as a long-lived complex. Regarding B1, the Kd in assay [2] amounted to 6.39 nM. In addition, the koff in assay [3] worked out at 0.000503 s⁻¹.
